“Also recorded” adds a separate entry of the source.
What was measured:
factors IX and X = conditions: Rao et al. 1988; cited from earlier work
TF 1-218 = TF 1-218 (UniProt P13726)
NV144 = NV144 (UniProt P13726)
Kringle 5 of plasminogen = biological target: T1, Kringle 5 of plasminogen (Homo sapiens, UniProt P00747); conditions: Chang et al. 1998; read-out: binding to kringle 5 of plasminogen; cited from earlier work
T1 sequence (P00747 481-560 limits assumed): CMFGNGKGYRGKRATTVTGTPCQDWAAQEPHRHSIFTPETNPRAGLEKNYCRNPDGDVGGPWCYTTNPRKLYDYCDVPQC

[1] = biological target: T2, blood coagulation factor VIIa (UniProt P08709 61-466); assay: titration of the amidolytic activity of factor VIIa against protein concentration
T2 sequence (looked up): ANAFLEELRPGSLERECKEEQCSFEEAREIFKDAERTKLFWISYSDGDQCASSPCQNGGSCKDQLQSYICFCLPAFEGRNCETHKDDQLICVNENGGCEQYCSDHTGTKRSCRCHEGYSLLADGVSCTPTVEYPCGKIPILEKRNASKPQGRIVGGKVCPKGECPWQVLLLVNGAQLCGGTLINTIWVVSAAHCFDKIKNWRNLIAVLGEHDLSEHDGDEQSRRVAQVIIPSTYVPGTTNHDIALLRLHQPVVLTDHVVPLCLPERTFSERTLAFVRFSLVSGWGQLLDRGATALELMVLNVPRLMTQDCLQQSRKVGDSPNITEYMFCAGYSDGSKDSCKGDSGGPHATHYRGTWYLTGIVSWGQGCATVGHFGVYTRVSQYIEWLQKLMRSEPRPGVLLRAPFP

factor X = assay: Linked functional assay: factor Xa generation by protein:VIIa complex incubated with factor X; format: biochemical; conditions: for Relative Proteolytic Activity: factor Xa generation, TF 1-218 = 1.00
[2] = biological target: T2, blood coagulation factor VIIa; assay: surface plasmon resonance, Biacore 2000
factor VIIa = biological target: T3, factor VIIa (Homo sapiens, UniProt P08709); assay: Surface plasmon resonance (Biacore 2000) binding to factor VIIa; conditions: by surface plasmon resonance and amidolytic titration
T3 sequence (P08709 61-212 limits assumed): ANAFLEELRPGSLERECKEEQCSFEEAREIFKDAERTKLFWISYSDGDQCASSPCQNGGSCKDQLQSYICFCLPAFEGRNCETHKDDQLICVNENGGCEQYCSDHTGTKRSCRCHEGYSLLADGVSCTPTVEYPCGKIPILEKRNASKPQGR
T3 sequence (P08709 213-466 limits assumed): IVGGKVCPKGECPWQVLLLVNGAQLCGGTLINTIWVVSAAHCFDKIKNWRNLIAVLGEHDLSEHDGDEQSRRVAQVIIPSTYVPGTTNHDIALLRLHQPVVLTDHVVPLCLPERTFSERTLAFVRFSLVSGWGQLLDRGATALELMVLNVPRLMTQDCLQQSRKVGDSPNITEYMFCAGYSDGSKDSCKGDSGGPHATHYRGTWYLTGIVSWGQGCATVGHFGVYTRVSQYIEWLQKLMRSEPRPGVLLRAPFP

[3] = test system: MAT B III breast carcinoma tumors; assay: Syngeneic MAT B III rat breast carcinoma model; format: in vivo, Fisher 344 rats; conditions: NV144 alone
Description: The MAT B III rat breast carcinoma is very malignant and fast-growing and, unlike many animal tumors, metastasizes. In addition, the tumor-bearing host lives sufficiently long to develop metastatic disease from the primary tumor. As such, the MAT-BIII tumor model has similar characteristics to human tumors.
Fisher 344 rats bearing MAT B III breast carcinoma tumors were used for these studies. Experiments were begun when the tumors reached approximately 170-200 mm3 in size (5-9 days; “day 0”). Tumors in saline treated controls grew very rapidly and reach a size of about 35,000 mm^3 at day 7. In the treatment groups, tumor-bearing rats were treated with NV144 or DOXIL (Sequus Pharmaceuticals, Inc.), either alone or in combination. In the clinic, DOXIL generally is administered at about 4 mg/kg.
At the highest dose of DOXIL (9 mg/kg), survival initially appeared to be similar in both groups of rats; however, none of the animals survived beyond day 23 due to the high dose of DOXIL.

[4] = test system: C1300 neuroblastoma tumor spheroid; assay: Intravital microscopy of tumor vessels in skinfold chamber; format: in vivo, A/J mouse; conditions: infused over 30 min

Question: With “TF: integral transmembrane protein receptor tissue factor, trigger of the coagulation cascade” as the molecule, how does the “enhancement of enzymatic activation of substrate factors IX and X on binding of factor VIIa” value (factors IX and X) read?
Answer: ≤ 5,000 fold

Question: With blood coagulation factor X as the molecule, how does the Relative Proteolytic Activity (TF 1-218) read?
Answer: 1

Question: What about the Relative Proteolytic Activity (NV144) of the same molecule?
Answer: 0.86

Question: Which Kd (Kringle 5 of plasminogen) does the source give for NCCCCCCC(=O)O [7-aminoheptanoic acid] here?
Answer: 367000 nM

Question: Which Kd (Kringle 5 of plasminogen) does the source give for NCCCCC(=O)O [5-aminopentanoic acid] here?
Answer: 580000 nM

B1: TF 1-218 (receptor, human, UniProt P13726 33-250, looked up)
chain: SGTTNTVAAYNLTWKSTNFKTILEWEPKPVNQVYTVQISTKSGDWKSKCFYTTDTECDLTDEIVKDVKQTYLARVFSYPAGNVESTGSAGEPLYENSPEFTPYLETNLGQPTIQSFEQVGTKVNVTVEDERTLVRRNNTFLSLRDVFGKDLIYTLYYWKSSSSGKKTAKTNTNEFLIDVDKGENYCFSVQAVIPSRTVNRKSTDSPVECMGQEKGEFR
notes: range 1-218; also called isolated truncated TF (tTF) domain alone; tTF
Question: For B1, which Kd [1] is on record?
Answer: 4.73 nM

Question: And the “Relative Proteolytic Activity” value (factor X)?
Answer: 1.00

Question: What about the Kd [2] of the same molecule?
Answer: 3.26 nM

B2: NV144 (other, human)
chain: PRKLYDGGGGSGGGGSGGGGSTTNTVAAYNLTWKSTNFKTILEWEPKPVNQVYTVQISTKSGDWKSKCFYTTDTECDLTDEIVKDVKQTYLARVFSYPAGNVESTGSAGEPLYENSPEFTPYLETNLGQPTIQSFEQVGTKVNVTVEDERTLVRRNNTFLSLRDVFGKDLIYTLYYWKSSSSGKKTAKTNTNEFLIDVDKGENYCFSVQAVIPSRTVNRKSTDSPVECMG
notes: range 3-211; also called CDFE; context-dependent functional entity
Question: What does the source list for B2?
Answer: Kd [1]: 4.32 nM; Kd [2]: 3.22 nM

B3: NV144: CDFE fusion polypeptide: truncated human TF domain, (Gly4Ser)3 spacer, plasminogen kringle 5 peptide Pro-Arg-Lys-Leu-Tyr-Asp (protein)
chain: PRKLYDGGGGSGGGGSGGGGSTTNTVAAYNLTWKSTNFKTILEWEPKPVNQVYTVQISTKSGDWKSKCFYTTDTECDLTDEIVKDVKQTYLARVFSYPAGNVESTGSAGEPLYENSPEFTPYLETNLGQPTIQSFEQVGTKVNVTVEDERTLVRRNNTFLSLRDVFGKDLIYTLYYWKSSSSGKKTAKTNTNEFLIDVDKGENYCFSVQAVIPSRTVNRKSTDSPVECMG
Question: Which results are given for B3?
Answer: affinity for factor VIIa compared with isolated truncated TF (tTF) domain alone (factor VIIa): comparable; anti-tumor activity when administered alone [3]: little or no effect; also recorded: no significant anti-tumor activity; rate of fluid phase factor Xa generation as compared to tTF (factor X): normal rate; Relative Proteolytic Activity (factor X): 0.86; effects on nearby vessels in skin and nearby angiogenic vessels [4]: No similar effects; rate of blood flow in the tumor [4]: general slowing; vascular permeability of tumor vessels ([4]; plasma leakage into extravascular space and hemorrhage): significant and selective changes

Source: patent US6576610B1, “Use of a context-dependent functional entity to enhance the efficacy of an agent” (Nuvas, LLC, priority 1999, dated 2003)
